US20040086502A1 (Genentech, published 2004)
Substitutions are numbered along the chain they refer to. Names and notes keep the numbering of the source. Each block holds one binder with its values, some of them ahead of it.

What was measured:
[1] = biological target: T1, VEGF(8-109) (UniProt P15692 214-315); assay: SPR (BIACORE-2000), Kd calculated as koff/kon
T1 construct: range 8-109; Covalently coupled to the BIACORE chip (EDC/NHS); also called vascular endothelial growth factor
T1 sequence (looked up): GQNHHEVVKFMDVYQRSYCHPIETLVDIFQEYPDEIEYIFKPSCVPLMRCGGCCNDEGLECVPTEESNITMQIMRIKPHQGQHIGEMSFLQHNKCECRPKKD
Method: (§1) BIACORE™ Analysis: The VEGF-binding affinities of Fab fragments were calculated from association and dissociation rate constants measured using a BIACORE™-2000 surface plasmon resonance system (BIACORE™, Inc., Piscataway, N.J.). A biosensor chip was activated for covalent coupling of VEGF using N-ethyl-N′-(3-dimethylaminopropyl)-carbodiimide hydrochloride (EDC) and N-hydroxysuccinimide (NHS) according to the supplier's (BIACORE™, Inc., Piscataway, N.J.) instructions. VEGF(8-109) was buffered exchanged into 20 mM sodium acetate, pH 4.8 and diluted to approximately 50 μg/mL. Aliquots of VEGF were injected at a flow rate of 2 μL/min to achieve approximately 700-1400 response units (RU) of coupled protein. A solution of 1 M ethanolamine was injected as a blocking agent.
(§2) For kinetics measurements, two-fold serial dilutions of Fab were injected in PBS/TWEEN buffer (0.05% TWEEN 20™ in phosphate buffered saline) at 25° C. at a flow rate of 10 μL/min. Equilibrium dissociation constants, Kd's from SPR measurements were calculated as koff/kon (Table 17).

[2] = biological target: T1, VEGF(8-109); assay: SPR (BIACORE-2000); reference (wt) is Y0192
Method: as §1, §2

[3] = biological target: T1, VEGF(8-109); assay: SPR (BIACORE-2000), Fab injected over immobilised VEGF(8-109), 25 C
Method: as §1, §2

[4] = biological target: T2, VEGF (recombinant; version 1-165) (UniProt P15692 27-191); assay: cell-based or functional assay
[5] = biological target: T2, VEGF (recombinant; version 1-165); assay: cell-based or functional assay; remark: listed apart in the source

T2 sequence (P15692 other isoform, or with tags, fused parts or gaps limits assumed): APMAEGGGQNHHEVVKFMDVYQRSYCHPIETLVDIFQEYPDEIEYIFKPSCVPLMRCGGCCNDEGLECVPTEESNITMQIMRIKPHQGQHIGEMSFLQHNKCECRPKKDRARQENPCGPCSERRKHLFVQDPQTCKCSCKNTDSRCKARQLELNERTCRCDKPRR

B1: Y0239-19 Fab (Fab, V domains shown)
VH: EVQLVESGGGLVQPGGSLRLSCAASGYTFTNYGMNWVRQAPGKGLEWVGWINTYTGEPTYAADFKRRFTFSLDTSKSTAYLQMNSLRAEDTAVYYCAKYPHYYVNERKSHWYFDVWGQGTL
VL: DIQLTQSPSSLSASVGDRVTITCRANEQLSNYLNWYQQKPGKAPKVLIYFTSSLHSGVPSRFSGSGSGTDFTLTISSLQPEDFATYYCQQYSTVPWTFGQGTKVEIKR
notes: also called insertion variant with the VNERK motif
- Kd [1]: ≤ 300 pM
- Kd(wt)/Kd(mut) [2]: 9.7 ratio
- koff [3]: ≤ 1e-05 s⁻¹
- kon [3]: 36000 M⁻¹ s⁻¹

B5: Y0241-7 Fab (Fab, V domains shown)
VH: EVQLVESGGGLVQPGGSLRLSCAASGYDWTNYGINWVRQAPGKGLEWVGWINTYTGEPTYAADFKRRFTFSLDTSKSTAYLQMNSLRAEDTAVYYCAKYPHYYGSSHWYFDVWGQGTL
VL: B1 VL
notes: Clone from library YC-86, made on the Y0192 template; The text names point mutations only at T28 and F29; The printed stretch ends in GIN, so residue 34 may also differ from the parent; this change is not applied here
- Kd [1]: 3000 pM
- Kd(wt)/Kd(mut) [2]: 1 ratio
- koff [3]: 0.000128 s⁻¹
- kon [3]: 46000 M⁻¹ s⁻¹

B6: Y0239-2 Fab (Fab, V domains shown)
VH: B1 VH with V104K, E106D, R107K, K108S
VL: B1 VL
- Kd [1]: 4600 pM
- Kd(wt)/Kd(mut) [2]: 0.6 ratio
- koff [3]: 0.000164 s⁻¹
- kon [3]: 36000 M⁻¹ s⁻¹

B7: Y0242-1 Fab (Fab, V domains shown)
VH: B5 VH with D28T, W29F, I34M, Y54W
VL: B1 VL
notes: Clone from library YC-90, made on the Y0192 template; also called point mutant Y54W
- Kd [1]: 1800 pM
- Kd(wt)/Kd(mut) [2]: 1.6 ratio
- koff [3]: 8.6e-05 s⁻¹
- kon [3]: 47000 M⁻¹ s⁻¹

B8: Y0241-6 Fab (Fab, V domains shown)
VH: B5 VH with W29Y
VL: B1 VL
notes: as for B5
- Kd [1]: 2700 pM
- Kd(wt)/Kd(mut) [2]: 1.1 ratio
- koff [3]: 0.000129 s⁻¹
- kon [3]: 47000 M⁻¹ s⁻¹

B9: Y0239-12 Fab (Fab, V domains shown)
VH: B1 VH with V104A, N105H, R107K
VL: B1 VL
- Kd [1]: 600 pM
- Kd(wt)/Kd(mut) [2]: 4.8 ratio
- koff [3]: 3.4e-05 s⁻¹
- kon [3]: 57000 M⁻¹ s⁻¹

B10: Y0261-6 Fab (Fab, V domains shown)
VH: B1 VH with V104L, N105K, E106D, R107K
VL: B1 VL
- Kd [1]: 600 pM
- Kd(wt)/Kd(mut) [2]: 5 ratio
- koff [3]: 2.5e-05 s⁻¹
- kon [3]: 44000 M⁻¹ s⁻¹

Further binders by falling Kd [1], results first:

- Kd [1]: 500 pM
- Kd(wt)/Kd(mut) [2]: 5.8 ratio
- koff [3]: 1.8e-05 s⁻¹
- kon [3]: 38000 M⁻¹ s⁻¹
B2: Y0239-8 Fab (Fab, V domains shown)
VH: EVQLVESGGGLVQPGGSLRLSCAASGYTFTNYGMNWVRQAPGKGLEWVGWINTYTGEPTYAADFKRRFTFSLDTSKSTAYLQMNSLRAEDTAVYYCAKYPHYYLRDGRSSHWYFDVWGQGTL
VL: B1 VL

- Kd [1]: 500 pM
- Kd(wt)/Kd(mut) [2]: 6 ratio
- koff [3]: 1.9e-05 s⁻¹
- kon [3]: 39700 M⁻¹ s⁻¹
B3: Y0239-9 Fab (Fab, V domains shown)
VH: EVQLVESGGGLVQPGGSLRLSCAASGYTFTNYGMNWVRQAPGKGLEWVGWINTYTGEPTYAADFKRRFTFSLDTSKSTAYLQMNSLRAEDTAVYYCAKYPHYYLGESSHWYFDVWGQGTL
VL: B1 VL
notes: Only three residues stand in place of G104, although the library was designed with four or five

- Kd [1]: 500 pM
- Kd(wt)/Kd(mut) [2]: 5.8 ratio
- koff [3]: 1.3e-05 s⁻¹
- kon [3]: 25000 M⁻¹ s⁻¹
B11: Y0240-1 Fab (Fab, V domains shown)
VH: B1 VH with V104L, N105T, E106D, R107H
VL: B1 VL

- IC50 (read off the curve); VEGF-induced HuVEC growth, alamar blue [4]: ~3 ng/mL
- inhibition of VEGF-induced growth of HuVECs (alamar blue assay) [5]: ~100 fold
- Kd [1]: 360 pM
- Kd(wt)/Kd(mut) [2]: 8 ratio
- koff [3]: 1.1e-05 s⁻¹
- kon [3]: 31100 M⁻¹ s⁻¹
B4: Y0313-2 Fab (Fab, V domains shown)
VH: B1 VH with T28D, N31H
VL: B1 VL
notes: Combines the CDR H3 insertion of Y0239-19 (VNERK) with T28D/N31H; also called CDR combination variant Y0313-2; Insert-Fab Y0313-2
